These results are taken from CN111138529A (INST MILITARY MEDICINE ACADEMY MILITARY SCIENCES PLA, dated 2020).

This experiment concerns the target T1, RESTV GP (RESTV, UniProt Q66799 34-651).
T1 sequence: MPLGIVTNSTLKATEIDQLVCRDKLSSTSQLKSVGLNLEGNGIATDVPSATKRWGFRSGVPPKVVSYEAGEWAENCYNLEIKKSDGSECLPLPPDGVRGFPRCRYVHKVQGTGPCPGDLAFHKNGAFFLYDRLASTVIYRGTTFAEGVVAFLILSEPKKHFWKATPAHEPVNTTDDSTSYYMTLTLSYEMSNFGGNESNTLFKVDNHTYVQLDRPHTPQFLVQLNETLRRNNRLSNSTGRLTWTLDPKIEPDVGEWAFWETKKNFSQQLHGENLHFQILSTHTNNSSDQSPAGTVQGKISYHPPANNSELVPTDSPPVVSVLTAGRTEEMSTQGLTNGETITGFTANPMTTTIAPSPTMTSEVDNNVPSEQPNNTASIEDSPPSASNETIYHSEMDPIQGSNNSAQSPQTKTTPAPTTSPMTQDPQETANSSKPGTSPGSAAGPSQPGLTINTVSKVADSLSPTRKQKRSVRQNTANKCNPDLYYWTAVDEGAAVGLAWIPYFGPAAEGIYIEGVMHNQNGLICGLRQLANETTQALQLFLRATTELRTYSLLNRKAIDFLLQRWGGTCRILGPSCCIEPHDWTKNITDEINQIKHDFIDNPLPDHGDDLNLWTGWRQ
Put plainly: ELISA, coated GP 1μg/mL. On the technique in general: In an ELISA, binding on a coated surface is turned into a signal by an enzyme label.

B1: 单克隆抗体5E1 (antibody, V domains shown)
VH: EVQLVESGGGVVQSGRSLRLSCAASGFTFSNYGMHWVRRAPGKGLEWVAVISYDGSIKYYADAVQGRFTISRDNSKNTLYLQMNSVRAEDRAVYYCAKGSRVVATLNFFDLWGRGTLVTVSS
VL: AIRMTQSPSSLSASVGDRVTITCRASQDIRNFLAWYQQKPEKAPKLLVYTASRRESGVPPRLSGSGSGTEYTLTISSLQPEDFATYYCQQYYSTPPTFGQGTKVDIKT
In the case of B1, the binding result is given as “no binding”.
